Measurements published in publication PMC7815493 (Redox Biology, 2021).

Columns and labels:
[1] = molecular target: T1, HMGB1:LK:CFP, P09429; assay: FRET or BRET; settings: remark: other sources report otherwise
T1 chain: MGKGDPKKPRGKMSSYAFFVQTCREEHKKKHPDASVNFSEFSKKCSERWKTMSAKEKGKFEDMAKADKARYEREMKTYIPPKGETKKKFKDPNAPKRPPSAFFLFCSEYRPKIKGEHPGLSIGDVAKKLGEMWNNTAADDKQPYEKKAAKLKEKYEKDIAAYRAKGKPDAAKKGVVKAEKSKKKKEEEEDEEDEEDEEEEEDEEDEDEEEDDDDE

[2] = molecular target: T2, Six His-tagged HMGB1 recombinant protein, P09429; assay: MALDI-TOF MS; settings: remark: other sources report otherwise
T2 chain: T1 chain

[3] = molecular target: T2, Six His-tagged HMGB1 recombinant …; settings: remark: other sources report otherwise
[4] = molecular target: the molecule itself; assay: non-reducing SDS-PAGE and immunoblot

B1: YFP:LK:HMGB1, P09429 1-215 (natural protein)
chain: T1 chain
FRET efficiency [1]: 17.1%

B2: Six His-tagged HMGB1 recombinant protein, P09429 1-215 (natural protein)
chain: T1 chain
stoichiometry N [2]: 2 | percent of molecules that are dimers [3]: 70%

B3: HMGB1 box B (aa 88-162) (domain or fragment, UniProt P09429 88-162, looked up)
chain: KFKDPNAPKRPPSAFFLFCSEYRPKIKGEHPGLSIGDVAKKLGEMWNNTAADDKQPYEKKAAKLKEKYEKDIAAY
binding result [4]: binds
